This data set has as its system substrate protein (Seq Id no. 1) (URSCREENSARS-COV-2).

Consider trypsin, for which the “cleavage bands on 15% SDS-PAGE (Sypro Ruby stain)” value is given as “We could clearly see the cleavage bands of expected molecular weight after gel staining”.
